Reference: patent US20050037448A1

How the values were obtained:
[1] = molecular target: des-31,32-proinsulin (UniProt P01308); test: competitive RIA, PEP001-coated tubes, 125I-Tyr-C-peptide; serum E2 overloaded with 0.16 pmol/ml des-31,32-proinsulin; no AC1D4
[2] = molecular target: des-64,65-proinsulin (UniProt P01308); test: competitive RIA, PEP001-coated tubes, 125I-Tyr-C-peptide; serum E2 overloaded with 0.67 pmol/ml des-64,65-proinsulin; no AC1D4
[3] = molecular target: des-31,32-proinsulin (UniProt P01308); test: competitive RIA, PEP001-coated tubes, 125I-Tyr-C-peptide; serum E1 overloaded with 3.33 pmol/ml des-31,32-proinsulin; competitor AC1D4 20 µg/ml
[4] = molecular target: des-31,32-proinsulin (UniProt P01308); test: competitive RIA, PEP001-coated tubes, 125I-Tyr-C-peptide; serum E2 overloaded with 0.67 pmol/ml des-31,32-proinsulin; competitor AC1D4 20 µg/ml
[5] = molecular target: des-31,32-proinsulin (UniProt P01308); test: competitive RIA, PEP001-coated tubes, 125I-Tyr-C-peptide; serum E2 overloaded with 3.33 pmol/ml des-31,32-proinsulin; competitor AC1D4 20 µg/ml
[6] = molecular target: des-64,65-proinsulin (UniProt P01308); test: competitive RIA, PEP001-coated tubes, 125I-Tyr-C-peptide; serum E2 overloaded with 3.33 pmol/ml des-64,65-proinsulin; competitor AC1D4 20 µg/ml

Increase after overload (%) [1]: 10% | Increase after overload (%) [2]: 9% | Increase after overload (%) [3]: 21% | Increase after overload (%) [4]: 5% | Increase after overload (%) [5]: 6% | Increase after overload (%) [6]: 69%
Substance: PEP001 anti-C-peptide monoclonal antibody
